From US20110144312A1 (Kyowa Kirin, published 2011)

T1: Ac-YHSNGYRARVRA-NH2 (human)
T1 peptide: Ac-YHSNGYRARVRA-NH2

T2: Ac-TVTNTRFSVD-NH2 (human)
T2 peptide: Ac-TVTNTRFSVD-NH2

T3: Ac-SIFSHFREYE-NH2 (human)
T3 peptide: Ac-SIFSHFREYE-NH2

T4: Ac-GNFTFTHKKV-NH2 (human)
T4 peptide: Ac-GNFTFTHKKV-NH2

T5: Ac-SVASRSNKGM-NH2 (human)
T5 peptide: Ac-SVASRSNKGM-NH2

T6: human IL-10Rα on cells (human, UniProt Q13651 22-578)
T6 construct: Full-length entry with signal peptide; endogenous on PBMC and RPMI-8226 cells, transfected in EL-4 and CHO-K1 cells; also called IL-10R on RPMI-8226 cells; IL-10Rα on human PBMC, lymphocytes and monocytes
T6 sequence: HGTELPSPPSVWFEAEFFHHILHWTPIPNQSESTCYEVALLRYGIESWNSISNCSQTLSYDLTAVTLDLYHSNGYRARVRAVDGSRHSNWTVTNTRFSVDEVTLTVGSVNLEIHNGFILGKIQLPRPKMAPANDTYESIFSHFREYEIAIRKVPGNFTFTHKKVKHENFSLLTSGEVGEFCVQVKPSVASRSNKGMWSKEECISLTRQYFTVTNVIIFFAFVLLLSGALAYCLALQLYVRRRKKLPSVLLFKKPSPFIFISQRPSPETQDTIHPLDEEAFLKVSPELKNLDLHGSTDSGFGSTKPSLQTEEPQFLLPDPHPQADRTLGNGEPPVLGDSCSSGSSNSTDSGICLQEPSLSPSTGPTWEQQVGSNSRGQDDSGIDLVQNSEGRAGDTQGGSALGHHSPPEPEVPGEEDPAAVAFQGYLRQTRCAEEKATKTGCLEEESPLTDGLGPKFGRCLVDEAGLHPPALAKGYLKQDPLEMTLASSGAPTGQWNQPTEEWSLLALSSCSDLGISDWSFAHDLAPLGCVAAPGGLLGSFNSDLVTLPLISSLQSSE

T7: cynomolgus macaque IL-10Rα on PBMC (cynomolgus macaque, UniProt Q13651 22-578 (human entry))
T7 construct: Full-length entry cloned from cynomolgus T cells; endogenous on primary PBMC in the assays; also called IL-10Rα on the surface of cynomolgus lymphocytes and monocytes
T7 chain: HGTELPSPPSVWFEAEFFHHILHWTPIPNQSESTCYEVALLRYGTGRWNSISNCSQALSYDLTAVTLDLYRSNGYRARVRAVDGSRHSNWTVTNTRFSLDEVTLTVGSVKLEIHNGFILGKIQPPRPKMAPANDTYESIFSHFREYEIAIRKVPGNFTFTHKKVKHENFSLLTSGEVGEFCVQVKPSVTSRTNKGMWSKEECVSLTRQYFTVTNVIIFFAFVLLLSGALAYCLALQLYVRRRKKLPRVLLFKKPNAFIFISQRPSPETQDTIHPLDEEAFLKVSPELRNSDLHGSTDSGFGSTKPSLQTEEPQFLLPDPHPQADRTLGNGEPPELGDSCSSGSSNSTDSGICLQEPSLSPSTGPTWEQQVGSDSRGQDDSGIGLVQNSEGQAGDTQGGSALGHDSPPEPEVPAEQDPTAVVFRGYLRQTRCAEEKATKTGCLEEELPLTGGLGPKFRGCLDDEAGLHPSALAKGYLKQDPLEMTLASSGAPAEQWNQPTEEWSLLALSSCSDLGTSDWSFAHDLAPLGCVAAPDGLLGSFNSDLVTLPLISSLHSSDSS


Tests used:
[1] = target: T1, Ac-YHSNGYRARVRA-NH2; assay: dot blot on PVDF or nitrocellulose membrane
Description: (§1) Methods to detect antibody binding to peptides derived from the human IL-10Rα sequence: Multiple methods were employed to detect binding of anti-human IL-10Rα antibodies to peptides derived from the extracellular domain of human IL-10Rα that have been reported by Reineke, et al. (Reineke, et al., Protein Sci 7:951 (1998)) to be included in the IL-10 binding site of the receptor. The following amide synthesized peptides were tested: Ac-[…]-NH2, Ac-[…]-NH2, Ac-[…]-NH2, Ac-[…]-NH2, Ac-[…]-NH2 (SEQ ID NO. 81-85). In addition, the following biotinylated peptides were tested: Biotin-[…]-NH2, Biotin-[…]-NH2 (SEQ ID NO. 86-87). The amide peptides were synthesized by A&A Labs, LLC (San Diego, Calif.) and the biotinylated peptides were synthesized by GenScript (Piscataway, N.J.) both at >95% purity and reconstituted at 20 mg/ml in DMSO. In one assay design peptides were spotted at 5 μg/spot in PBS onto PVDF membranes or nitrocellulose membranes that had been prepared according to the manufacturer's instructions. The membranes were incubated with anti-IL-10Rα antibodies using standard Western blotting methods (e.g. Towbin, et al., Proc Natl Acad Sci 76:4350 (1979)). Native human IL-10Ra:hFc and heat denatured human IL-10Ra:hFc were also spotted at 1 μg/spot on the membranes as controls. Negative controls included an irrelevant peptide and isotype controls. […] None of the antibodies bound to the spotted denatured protein or to any of the peptides derived from the human IL-10Ra extracellular domain or the irrelevant peptide.

[2] = target: T2, Ac-TVTNTRFSVD-NH2; assay: dot blot on PVDF or nitrocellulose membrane
Description: as §1

[3] = target: T3, Ac-SIFSHFREYE-NH2; assay: dot blot on PVDF or nitrocellulose membrane
Description: as §1

[4] = target: T4, Ac-GNFTFTHKKV-NH2; assay: dot blot on PVDF or nitrocellulose membrane
Description: as §1

[5] = target: T5, Ac-SVASRSNKGM-NH2; assay: dot blot on PVDF or nitrocellulose membrane
Description: as §1

[6] = target: T6, human IL-10Rα on cells; assay: flow cytometry, RPMI-8226 cells pre-incubated with biotinylated human IL-10 (competitor)
Description: IL-10 Blocking Assay: To determine if the anti-human IL-10Rα antibodies were blocked by binding of IL-10 to the receptor on the cell surface, a flow cytometric protocol was used. In the flow cytometric assay, RPMI-8226 cells were washed and resuspended in staining buffer and then incubated with biotinylated human IL-10 or a negative control protein (R&D Systems) for 30 minutes on ice. The anti-IL-10Rα antibodies were then added to the cells for an additional 30 minutes. The cells were washed and incubated with anti-human IgG conjugated to PE (Southern Biotech Associates) for 30 minutes. After another wash, the cells were fixed with 1% paraformaldehyde and analyzed on a FACS Calibur. The fold reduction in antibody binding was determined using the geometric mean fluorescence intensity in the following formula: Fold reduction=geometric mean fluorescence intensity in the absence of IL-10/geometric mean fluorescence intensity binding in presence of IL-10.
Recombinant IL-10 binding to the IL-10R expressed by RPMI-8226 cells reduced binding of the anti-human IL-10Rα antibodies (FIG. 3A). The reduction in antibody binding was similar for all antibodies tested. […] The fold reduction in binding by IL-10 (Table 3) was determined by dividing the geo mean of the antibody binding in the absence of IL-10 by the geo mean in the presence of IL-10. […]

[7] = target: T7, cynomolgus macaque IL-10Rα on PBMC; assay: flow cytometry on cynomolgus macaque PBMC, lymphocyte gate; competitor: recombinant human IL-10Rα [C]

binding result [1]	binding result [2]	binding result [3]	binding result [4]	binding result [5]	Fold Reduction by IL-10 [6] [fold]	binding result [7]	Binder
no binding (tested: 5 µg/spot)	no binding (tested: 5 µg/spot)	no binding (tested: 5 µg/spot)	no binding (tested: 5 µg/spot)	no binding (tested: 5 µg/spot)	1.88	binds	136C5 (antibody, V domains shown, Hybridoma antibody, human IgG1, kappa light chain; also called human anti-human IL-10Rα monoclonal antibody 136C5; hybridoma deposit PTA-9131) VH: EVQLVESGGGLVQPGGSLRLSCAASGFTFSSYSMNWVRQAPGKGLEWVSYISTGSSTIYYADSVKGRFTISRDNAKNSLYLQMNSLRDEDTAVYYCARENYYGSGSYEDYFDYWGQGTLVTVSS VL: EIVLTQSPATLSLSPGERATLSCRASQSVSSYLAWYQQKPGQAPRLLIYDASNRATGIPARFSGSGSGTDFTLTISSLEPEDFAVYYCQQRSNWPIFTFGPGTKVDIK
no binding (tested: 5 µg/spot)	no binding (tested: 5 µg/spot)	no binding (tested: 5 µg/spot)	no binding (tested: 5 µg/spot)	no binding (tested: 5 µg/spot)	1.98	binds	136C8 (antibody, V domains shown, Hybridoma antibody, human IgG2, kappa light chain; also called human anti-human IL-10Rα monoclonal antibody 136C8; hybridoma deposit PTA-9132) VH: EVQLVESGGGLVQPGGSLRLSCAASGFTFSSYSMNWVRQAPGKGLEWVSYISTRSSTIYYADSVKGRFTISRDNAKNSLYLQMNSLRDEDTAVYYCARENYYGSGSYEDYFDYWGQGTLVTVSS VL: EIVLTQSPATLSLSPGERATLSCRASQSVSSYLAWYQQKPGQAPRLLIYDASNRATGIPARFSGSGSGTDFTLTISSLEPEDFAVYYCQQRSNWPIFTFGPGTKVDIK
